Assay results as given in publication PMC3701943.

Molecular target: W590S murine ABCA1-GFP fusion (murine) (UniProt P41233)
Assay: flow cytometry on cells

Chain of UniProt P41233 (P41233 whole entry W590S, the tested form may be a part): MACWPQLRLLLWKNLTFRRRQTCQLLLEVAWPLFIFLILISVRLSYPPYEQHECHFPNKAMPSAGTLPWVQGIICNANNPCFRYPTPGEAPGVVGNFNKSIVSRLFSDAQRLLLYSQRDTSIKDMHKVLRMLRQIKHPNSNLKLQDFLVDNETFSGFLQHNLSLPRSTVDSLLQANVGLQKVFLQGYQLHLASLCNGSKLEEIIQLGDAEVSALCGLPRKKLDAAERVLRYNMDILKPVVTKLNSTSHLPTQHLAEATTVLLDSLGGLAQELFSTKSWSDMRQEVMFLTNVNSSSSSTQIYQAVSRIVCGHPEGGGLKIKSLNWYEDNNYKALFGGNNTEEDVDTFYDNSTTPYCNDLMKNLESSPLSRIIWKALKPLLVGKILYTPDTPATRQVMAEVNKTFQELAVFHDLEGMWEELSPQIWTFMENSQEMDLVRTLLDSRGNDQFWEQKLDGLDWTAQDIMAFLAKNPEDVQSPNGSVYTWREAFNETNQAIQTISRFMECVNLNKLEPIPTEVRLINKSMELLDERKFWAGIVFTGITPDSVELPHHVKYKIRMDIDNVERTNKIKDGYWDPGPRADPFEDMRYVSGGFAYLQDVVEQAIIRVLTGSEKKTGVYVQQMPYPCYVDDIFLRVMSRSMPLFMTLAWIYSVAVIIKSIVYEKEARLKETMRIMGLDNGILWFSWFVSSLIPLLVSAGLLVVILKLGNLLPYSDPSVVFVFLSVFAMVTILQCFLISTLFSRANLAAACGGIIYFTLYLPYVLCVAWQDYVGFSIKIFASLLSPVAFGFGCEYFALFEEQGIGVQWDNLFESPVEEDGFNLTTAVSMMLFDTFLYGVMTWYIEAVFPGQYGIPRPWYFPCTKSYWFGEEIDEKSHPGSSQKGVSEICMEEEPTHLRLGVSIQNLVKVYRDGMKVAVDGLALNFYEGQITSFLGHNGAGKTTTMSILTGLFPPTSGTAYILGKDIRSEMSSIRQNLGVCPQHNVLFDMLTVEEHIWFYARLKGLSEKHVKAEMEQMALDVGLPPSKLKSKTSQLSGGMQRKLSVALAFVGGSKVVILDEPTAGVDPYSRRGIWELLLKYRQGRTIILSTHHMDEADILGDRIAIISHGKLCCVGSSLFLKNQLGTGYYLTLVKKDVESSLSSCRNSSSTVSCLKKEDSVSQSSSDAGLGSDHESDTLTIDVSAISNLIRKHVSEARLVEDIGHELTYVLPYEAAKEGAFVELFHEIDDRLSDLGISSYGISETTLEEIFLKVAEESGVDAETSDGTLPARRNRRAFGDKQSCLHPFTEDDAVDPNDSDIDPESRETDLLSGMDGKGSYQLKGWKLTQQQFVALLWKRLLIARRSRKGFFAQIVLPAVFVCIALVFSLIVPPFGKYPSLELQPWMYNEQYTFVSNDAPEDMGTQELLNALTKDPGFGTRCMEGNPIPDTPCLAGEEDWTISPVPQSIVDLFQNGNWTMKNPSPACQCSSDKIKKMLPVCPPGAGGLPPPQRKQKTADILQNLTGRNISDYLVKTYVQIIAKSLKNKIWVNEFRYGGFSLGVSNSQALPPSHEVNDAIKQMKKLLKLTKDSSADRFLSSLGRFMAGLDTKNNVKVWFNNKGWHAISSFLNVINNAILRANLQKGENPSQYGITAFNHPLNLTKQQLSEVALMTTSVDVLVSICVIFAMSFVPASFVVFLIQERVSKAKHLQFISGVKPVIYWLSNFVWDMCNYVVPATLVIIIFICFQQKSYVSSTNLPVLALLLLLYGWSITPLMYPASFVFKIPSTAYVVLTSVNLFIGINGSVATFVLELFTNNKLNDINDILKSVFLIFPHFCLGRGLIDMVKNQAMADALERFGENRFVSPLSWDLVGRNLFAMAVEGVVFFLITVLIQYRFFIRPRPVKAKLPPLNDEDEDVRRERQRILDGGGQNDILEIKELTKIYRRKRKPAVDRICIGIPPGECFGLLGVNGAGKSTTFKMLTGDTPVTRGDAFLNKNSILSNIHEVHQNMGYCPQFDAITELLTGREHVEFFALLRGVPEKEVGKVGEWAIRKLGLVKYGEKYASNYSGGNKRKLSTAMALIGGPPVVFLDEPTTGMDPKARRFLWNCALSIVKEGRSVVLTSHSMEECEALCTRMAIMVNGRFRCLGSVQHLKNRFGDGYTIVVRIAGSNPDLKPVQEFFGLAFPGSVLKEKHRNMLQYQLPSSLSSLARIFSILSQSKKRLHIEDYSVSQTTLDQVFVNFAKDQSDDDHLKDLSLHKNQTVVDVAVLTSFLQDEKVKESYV

fold apoAI binding against control HEK cells: 6 fold
Substance: Alexa647-labeled apoAI (from UniProt P02647 25-267) (ligand)
